Data on 3 molecules can be found in patent publication US7211241B2, “Cascade polymer complexes, process for their production and pharmaceutical agents containing said complexes” (Schering Aktiengesellschaft, priority 1995, dated 2007).

Series [1] can be described thus: In vivo comparison with an extracellular contrast medium: blood concentrations of Gd and Dy in rats with ligated renal vessels. Conditions: i.v.; for diffusion in the interstitium: compound 1 and compound 2 compared in the same animals; for time until equilibrium is reached (constant blood level): examination period 15 minutes. The source says:
FIG. 1 is a graph of the measured blood concentrations of Gd (compound 1) and Dy (compound 2) in rats (n=5) with ligated renal vessels, as described in the above Example for an In Vivo Comparison with an Extracellular Contrast Medium.
The suitability of the compound described in Example 1k) as blood-pool-agent is shown in the following test.
As test animals, five male (Schering-SPF) rats that are 300–350 g in weight are used. Before the test, the abdomen is opened, the intestines are shifted and then the renal vessels (arterial+venous) of both sides are ligated through the rear peritoneum with a surgical needle. Then, the abdominal cavity is closed again. 0.3 ml (respectively 50 mmol/L) of the following contrast medium solution per animal is then administered intravenously: mixture of 1 part each of the compound of Example 1k), named compound 1 below, and the dysprosium complex of 10-(1-hydroxymethyl-2,3-dihydroxypropyl)-1,4,7-tris(carboxymethyl)-1,4,7,10-tetraazacyclododecane, produced analogously to the instructions in European Patent Application EP 448 191, named compound 2 below. Blood samples are taken with a catheter in the common carotid artery at the following times: 15, 30, 45, 60, 90 seconds, 3, 5, 10, 15 minutes p.i. In the blood samples obtained, the concentrations of gadolinium (Gd) and dysprosium (Dy) are measured with the aid of atomic emission spectrometry (ICP-AES) in each case in a parallel manner. The portion of the injected contrast medium of compound 1 (Gd) and compound 2 (Dy., comparison substance), remaining in the blood space, can be compared in the same animals by the different marking. Since a renal excretion is not possible, the decrease of the blood concentration can be attributed only to a distribution in the blood spaces and to the diffusion in the interstitial tissue.

Series [2] in a line: MR angiography on rabbits. The format is in vivo. Conditions: i.v. 50 μmol of Gd/kg of body weight, 1.5 tesla. As for the experimental part:
The compound cited under Example 1k was studied on rabbits (CH. R. Kisslegg, ≈4 kg of body weight) in an MR angiography experiment (Ganzkörper [whole-Body] MRT System Siemens Vision, 1.5 tesla, FISP 3D; TR: 400 ms; TE 15 ms; flip angle: 45°; coronal).
In a precontrast picture only one to two major vessels are visible (e.g., abdominal aorta) in relatively poor contrast (signal intensity SI of these vessels against the background).

For series [3] the following is noted: rats; cited from earlier work.

For “24-mer-Gd-complex of N-(5-DO3A-yl-4-oxo-3-azahexanoyl)-cascade polyamide based on N,N,N′,N′,N″,N″-hexakis[2-(trilysylamino)-ethyl]-trimesic acid triamide [Example 1k]”, in series [1], the “behaviour as blood-pool contrast medium” value was “behaves as a blood-pool contrast medium”, the “diffusion in the interstitium” value is given as “considerably slowed-down” and the “time until equilibrium is reached (constant blood level)” value was “no equilibrium is reached”. The blood concentrations entry in series [1] (compound 1 versus compound 2, up to 15 minutes p.i.) was “constantly higher”. The “blood vessels visible after administration of contrast medium” value in series [2] was “a wide variety of minor blood vessels and capillaries”. In addition, the “contrast (SI of the vessels/SI of the background)” value in series [2] (versus precontrast picture) is listed as “marked increase”.
Regarding `O=C([O-])CN1CCN(CC(=O)[O-])CCN(C(CO)C(O)CO)CCN(CC(=O)[O-])CC1.[Dy+3]` (stereo not drawn) [compound 2, dysprosium complex of 10-(1-hydroxymethyl-2,3-dihydroxypropyl)-1,4,7-tris(carboxymethyl)-1,4,7,10-tetraazacyclododecane, reference compound], in series [1], the “diffusion in the interstitium” value was “diffuses quickly into the interstitial spaces of the body” and the “time until equilibrium is reached (constant blood level)” value was 3–5 minutes p.i.
As to polylysine-GdDTPA, in series [3], the excretion route result was “excreted unchanged by glomerular filtration through the kidneys”.
